# Data from US5780265A, “Kunitz type plasma kallikrein inhibitors” (Genentech, Inc., priority 1995, dated 1998).
# Like-named read-outs stand apart in the source and are kept apart here. Bridges are numbered along the chain shown (N, C = ends). Where no end group is shown, it is not given here.
# What was measured:
# plasmin = molecular target: T1, plasmin (Homo sapiens, UniProt P00747); assay: Specificity assay, plasmin; type: biochemical; conditions: 100 nM inhibitor; for fraction of remaining proteolytic activity, plasmin: plasmin 32 nM, 0.7 mM S2251
# T1 construct: Human plasmin, S-2302, S-2251, and S-2366 were purchased from Kabi Vitrum (Sweden); purchased Kabi Vitrum (Sweden)
# T1 sequence (P00747 581-810 limits assumed): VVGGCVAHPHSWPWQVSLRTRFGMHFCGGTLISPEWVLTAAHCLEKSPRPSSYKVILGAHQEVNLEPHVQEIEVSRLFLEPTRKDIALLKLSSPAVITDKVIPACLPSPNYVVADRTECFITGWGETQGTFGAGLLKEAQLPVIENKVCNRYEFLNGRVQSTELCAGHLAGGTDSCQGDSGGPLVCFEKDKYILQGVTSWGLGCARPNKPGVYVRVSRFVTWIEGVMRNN
# T1 sequence (P00747 97-580 limits assumed): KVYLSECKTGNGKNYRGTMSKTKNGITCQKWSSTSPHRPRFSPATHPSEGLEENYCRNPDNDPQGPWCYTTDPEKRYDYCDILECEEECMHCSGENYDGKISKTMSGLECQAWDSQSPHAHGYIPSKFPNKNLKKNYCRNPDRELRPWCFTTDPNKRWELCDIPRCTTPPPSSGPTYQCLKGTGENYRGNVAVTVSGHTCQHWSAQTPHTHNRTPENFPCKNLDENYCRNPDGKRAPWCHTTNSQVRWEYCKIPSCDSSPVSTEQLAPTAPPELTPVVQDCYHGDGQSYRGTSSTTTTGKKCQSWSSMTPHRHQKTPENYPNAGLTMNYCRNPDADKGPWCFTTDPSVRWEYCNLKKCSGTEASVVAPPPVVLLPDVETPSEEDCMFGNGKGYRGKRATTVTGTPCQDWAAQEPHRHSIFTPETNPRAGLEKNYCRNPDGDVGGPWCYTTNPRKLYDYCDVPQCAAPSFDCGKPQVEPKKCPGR
# Protocol: (§3) Aliquots (30 μL) of various inhibitors diluted to 500 nM were incubated with each protease (100 μL) in the appropriate buffer. After incubation of the substrate/inhibitor mixes at room temperature for 2 h, the appropriate substrate (20 μL) was added, and the absorbance at 405 nm was monitored. […] The FXIa assay also contained 1 mg/mL BSA. The concentration of FXIa throughout refers to the concentration of active sites. For this experiment, the concentrations of thrombin, TF-FVIIa, FXa, FXIa, FXIIa, and plasmin are approximate and are determined based upon the manufacturers' specifications.
# (§4) Serine proteases (1 to 20 nM) were assayed in the presence of 100 nM inhibitor. […] The degree to which FXIa was inhibited by selected inhibitors including the consensus mutants was further investigated by measuring the Ki *.
# thrombin = molecular target: T2, thrombin (Homo sapiens, UniProt P00734); assay: Specificity assay, thrombin; type: biochemical; conditions: 100 nM inhibitor; thrombin 6.2 nM, 0.7 mM S2366
# T2 construct: purchased Haematologic Technologies Inc. (Essex Jct., Vt.)
# Protocol: (§5) Aliquots (30 μL) of various inhibitors diluted to 500 nM were incubated with each protease (100 μL) in the appropriate buffer. After incubation of the substrate/inhibitor mixes at room temperature for 2 h, the appropriate substrate (20 μL) was added, and the absorbance at 405 nm was monitored. […] For this experiment, the concentrations of thrombin, TF-FVIIa, FXa, FXIa, FXIIa, and plasmin are approximate and are determined based upon the manufacturers' specifications.
# (§6) Serine proteases (1 to 20 nM) were assayed in the presence of 100 nM inhibitor.
# plasma kallikrein [1] = molecular target: T3, plasma kallikrein (Homo sapiens, UniProt P03952); assay: Specificity assay, plasma kallikrein; type: biochemical; conditions: 100 nM inhibitor; plasma kallikrein 3.5 nM, 0.7 mM S2302; 2 h room temperature
# T3 construct: Human plasma kallikrein and Factor XIIa were purchased; purchased Enzyme Research Laboratories, Inc. (South Bend, Ind.)
# T3 sequence (P03952 391-638 limits assumed): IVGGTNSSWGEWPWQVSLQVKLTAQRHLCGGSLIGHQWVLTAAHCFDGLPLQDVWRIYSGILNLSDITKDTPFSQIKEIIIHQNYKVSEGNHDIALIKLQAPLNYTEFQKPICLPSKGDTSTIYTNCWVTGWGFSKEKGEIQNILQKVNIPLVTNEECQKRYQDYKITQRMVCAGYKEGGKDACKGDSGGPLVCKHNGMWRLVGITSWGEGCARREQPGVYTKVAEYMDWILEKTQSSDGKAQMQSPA
# T3 sequence (P03952 20-390 limits assumed): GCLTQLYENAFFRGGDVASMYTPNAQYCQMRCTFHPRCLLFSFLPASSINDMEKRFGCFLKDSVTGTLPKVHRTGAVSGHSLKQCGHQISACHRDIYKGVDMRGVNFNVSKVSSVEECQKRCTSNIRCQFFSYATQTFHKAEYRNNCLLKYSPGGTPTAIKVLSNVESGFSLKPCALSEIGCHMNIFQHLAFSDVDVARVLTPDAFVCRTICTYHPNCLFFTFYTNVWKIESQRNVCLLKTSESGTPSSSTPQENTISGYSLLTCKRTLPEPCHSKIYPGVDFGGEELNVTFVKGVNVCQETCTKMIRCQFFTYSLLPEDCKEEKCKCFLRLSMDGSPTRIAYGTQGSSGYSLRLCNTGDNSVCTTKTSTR
# Protocol: as §3, §4
# activated protein C = molecular target: T4, activated protein C (Homo sapiens, UniProt P04070); assay: Specificity assay, activated protein C; type: biochemical; conditions: 100 nM inhibitor; activated protein C 7.6 nM, 0.7 mM S2366
# T4 construct: purchased Haematologic Technologies Inc. (Essex Jct., Vt.)
# T4 sequence (P04070 212-461 limits assumed): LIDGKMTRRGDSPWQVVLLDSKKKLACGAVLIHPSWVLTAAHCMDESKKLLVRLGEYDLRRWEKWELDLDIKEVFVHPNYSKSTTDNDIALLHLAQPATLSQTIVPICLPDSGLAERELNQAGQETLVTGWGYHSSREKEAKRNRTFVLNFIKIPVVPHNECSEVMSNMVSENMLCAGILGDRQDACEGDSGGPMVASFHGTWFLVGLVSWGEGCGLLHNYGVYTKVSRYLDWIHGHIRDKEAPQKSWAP
# T4 sequence (P04070 43-197 limits assumed): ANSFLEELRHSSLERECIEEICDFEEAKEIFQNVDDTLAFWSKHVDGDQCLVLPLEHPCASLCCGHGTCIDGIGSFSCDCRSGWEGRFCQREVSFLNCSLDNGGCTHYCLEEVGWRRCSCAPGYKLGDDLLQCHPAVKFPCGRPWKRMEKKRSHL
# Protocol: as §3, §4
# [2] = molecular target: T5, TF-FVIIa (tissue factor-Factor VIIa) (Homo sapiens, UniProt P08709); assay: Specificity assay, TF-FVIIa; type: biochemical; conditions: 100 nM inhibitor; TF 77 nM-FVIIa 14 nM, 0.7 mM S2366
# T5 construct: purchased Haematologic Technologies Inc. (FVIIa); TF made in house; host or cells: E. coli (TF 1-243)
# T5 sequence (P08709 213-466 limits assumed): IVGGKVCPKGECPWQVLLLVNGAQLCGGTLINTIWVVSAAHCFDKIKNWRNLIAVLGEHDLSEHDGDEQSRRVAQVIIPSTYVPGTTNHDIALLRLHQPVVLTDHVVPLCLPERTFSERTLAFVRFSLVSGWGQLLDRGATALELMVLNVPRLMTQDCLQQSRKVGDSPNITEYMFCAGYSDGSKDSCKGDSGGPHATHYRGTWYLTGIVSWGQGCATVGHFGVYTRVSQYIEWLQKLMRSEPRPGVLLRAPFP
# T5 sequence (P08709 61-212 limits assumed): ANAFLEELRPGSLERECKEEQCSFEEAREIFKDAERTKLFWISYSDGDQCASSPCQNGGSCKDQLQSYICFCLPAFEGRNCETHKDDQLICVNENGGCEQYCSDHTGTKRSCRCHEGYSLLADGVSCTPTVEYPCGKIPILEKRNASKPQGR
# T5 sequence (P13726 33-275 partner limits assumed): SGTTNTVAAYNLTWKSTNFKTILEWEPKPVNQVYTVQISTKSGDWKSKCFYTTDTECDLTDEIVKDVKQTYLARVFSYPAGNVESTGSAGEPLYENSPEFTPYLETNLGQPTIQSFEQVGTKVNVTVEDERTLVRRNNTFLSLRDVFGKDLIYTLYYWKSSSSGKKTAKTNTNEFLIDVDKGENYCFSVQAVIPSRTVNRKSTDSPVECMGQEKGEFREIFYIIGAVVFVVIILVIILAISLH
# Protocol: as §3, §4
# Factor Xa = molecular target: T6, Factor Xa (Homo sapiens, UniProt P00742); assay: Specificity assay, Factor Xa; type: biochemical; conditions: 100 nM inhibitor; FXa 2.5 nM, 0.7 mM Spectrozyme fXa
# T6 construct: purchased Haematologic Technologies Inc. (Essex Jct., Vt.)
# T6 sequence (P00742 235-488 limits assumed): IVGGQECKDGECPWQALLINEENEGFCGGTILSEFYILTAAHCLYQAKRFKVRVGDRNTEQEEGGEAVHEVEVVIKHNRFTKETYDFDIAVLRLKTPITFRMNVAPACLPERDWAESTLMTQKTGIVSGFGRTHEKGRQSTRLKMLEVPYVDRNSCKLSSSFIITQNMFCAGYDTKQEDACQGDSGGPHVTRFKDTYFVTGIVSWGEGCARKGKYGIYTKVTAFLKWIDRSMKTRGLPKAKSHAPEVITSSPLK
# T6 sequence (P00742 41-179 limits assumed): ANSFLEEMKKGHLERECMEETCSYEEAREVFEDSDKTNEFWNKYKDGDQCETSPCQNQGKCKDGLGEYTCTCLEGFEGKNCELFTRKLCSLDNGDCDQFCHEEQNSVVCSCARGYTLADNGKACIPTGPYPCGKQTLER
# Protocol: as §5, §6
# Factor XIa [3] = molecular target: T7, Factor XIa (Homo sapiens, UniProt P03951); assay: Specificity assay, Factor XIa; type: biochemical; conditions: 100 nM inhibitor; FXIa […], 0.7 mM S2366, 1 mg/mL BSA
# T7 construct: purchased Haematologic Technologies Inc. (Essex Jct., Vt.)
# T7 sequence (P03951 388-625 limits assumed): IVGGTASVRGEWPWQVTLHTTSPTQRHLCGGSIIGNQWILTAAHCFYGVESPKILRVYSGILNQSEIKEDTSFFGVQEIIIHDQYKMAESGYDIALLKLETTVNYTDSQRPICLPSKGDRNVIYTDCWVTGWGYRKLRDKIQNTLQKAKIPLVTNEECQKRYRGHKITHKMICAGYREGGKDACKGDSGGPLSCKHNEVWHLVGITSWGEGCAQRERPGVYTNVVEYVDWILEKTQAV
# T7 sequence (P03951 19-387 limits assumed): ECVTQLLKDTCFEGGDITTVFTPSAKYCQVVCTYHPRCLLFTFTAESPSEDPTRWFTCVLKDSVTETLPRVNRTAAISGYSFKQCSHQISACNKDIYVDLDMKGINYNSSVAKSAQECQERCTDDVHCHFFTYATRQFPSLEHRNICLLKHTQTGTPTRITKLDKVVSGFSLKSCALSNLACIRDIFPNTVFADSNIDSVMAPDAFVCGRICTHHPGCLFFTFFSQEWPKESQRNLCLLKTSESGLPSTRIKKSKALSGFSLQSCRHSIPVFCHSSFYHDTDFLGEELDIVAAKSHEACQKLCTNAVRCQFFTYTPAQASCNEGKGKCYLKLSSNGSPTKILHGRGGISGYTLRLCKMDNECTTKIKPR
# Protocol: as §3, §4
# Factor XIIa = molecular target: T8, Factor XIIa (Homo sapiens, UniProt P00748); assay: Specificity assay, Factor XIIa; type: biochemical; conditions: 100 nM inhibitor; 0.7 mM S2302
# T8 construct: purchased Enzyme Research Laboratories, Inc. (South Bend, Ind.)
# T8 sequence (P00748 373-615 limits assumed): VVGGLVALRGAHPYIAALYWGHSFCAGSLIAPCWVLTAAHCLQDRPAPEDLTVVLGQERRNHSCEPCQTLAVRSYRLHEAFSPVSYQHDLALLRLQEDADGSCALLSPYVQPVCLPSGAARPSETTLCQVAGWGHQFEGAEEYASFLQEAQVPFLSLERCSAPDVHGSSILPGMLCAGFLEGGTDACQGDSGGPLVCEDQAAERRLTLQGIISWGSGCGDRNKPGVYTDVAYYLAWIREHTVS
# T8 sequence (P00748 20-372 limits assumed): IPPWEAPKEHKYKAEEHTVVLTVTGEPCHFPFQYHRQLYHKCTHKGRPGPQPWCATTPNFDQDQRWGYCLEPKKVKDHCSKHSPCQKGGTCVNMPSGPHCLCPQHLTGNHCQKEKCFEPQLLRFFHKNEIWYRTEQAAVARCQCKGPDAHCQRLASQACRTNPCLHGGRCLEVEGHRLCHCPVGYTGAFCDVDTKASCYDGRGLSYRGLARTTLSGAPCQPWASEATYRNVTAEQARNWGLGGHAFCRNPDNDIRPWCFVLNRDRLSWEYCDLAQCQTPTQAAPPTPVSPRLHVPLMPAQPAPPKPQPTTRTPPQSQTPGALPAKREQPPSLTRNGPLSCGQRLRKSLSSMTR
# Protocol: as §5, §6
# Factor XIa [4] = molecular target: T7, Factor XIa; assay: Apparent equilibrium dissociation constant (Ki*) with FXIa; type: biochemical; conditions: at least 3 independent measurements
# Protocol: as §4
# plasma kallikrein [5] = molecular target: T3, plasma kallikrein; assay: Apparent equilibrium dissociation constant (Ki*) with plasma kallikrein; type: biochemical
# Protocol: Reactions (200 μL) were carried out in microtiter plates and the rate substrate (0.7 mM S2302) was monitored at 405 nm following a 1.5 h incubation. Plots of the fractional rate versus inhibitor concentration were fit by nonlinear regression analysis to Equation 1 to determine apparent equilibrium dissociation constants (Ki *):
# plasma kallikrein [6] = conditions: Seymour et al. 1994; read-out: Ki for plasma kallikrein (literature); cited from earlier work
# [7] = test system: intrinsic coagulation pathway; assay: Activated partial thromboplastin time (APTT) clotting assay in normal human plasma; type: biochemical; conditions: 1 μM inhibitor
# Protocol: (§1) FIG. 5A and FIG. 5B. […] The uninhibited clotting times were 33.6 sec and 14 sec for the APTT and PT, respectively
# (§2) Clotting times for normal human plasma were performed using an MLA Electra 800 Coagulometer (Medical Laboratory Automation, Inc. Pleasantville, N.Y.) and Dade reagents (Baxter Health Care Corp., Miami Fla.). The clotting time was determined by optical assessment.
# For the activated partial thromboplastin time (APTT) assays, the activation time was set at 120 sec and acquisition time at 300 to 600 sec depending on the expected outcome of the assay. Citrated normal human plasma and inhibitor were incubated together. The sample (plasma and inhibitor) and activator (Actin FS) were automatically pipetted and incubated is together for 2 min at 37° C., then CaCl2 was added and clotting time determined by means of optical assessment. The total incubation time of inhibitor with plasma was ca. 3 min before addition of activator, and 5 min before addition of CaCl2.
# [8] = test system: extrinsic coagulation pathway; assay: Prothrombin time (PT) clotting assay, tissue factor initiated; type: biochemical; conditions: normal human plasma, TF initiated
# Protocol: as §1, §2
# [9] = 25° C., pH 7.5, 0.7 mM S2302, 1.5 h incubation, at least 3 independent measurements, read-out: Plasma Kallikrein Ki*
Compound,"fraction of remaining proteolytic activity, plasmin (plasmin)","fraction of remaining proteolytic activity, thrombin (thrombin)","fraction of remaining proteolytic activity, plasma kallikrein (plasma kallikrein [1])","fraction of remaining proteolytic activity, activated protein C (activated protein C)","fraction of remaining proteolytic activity, TF · Factor VIIa [2]","fraction of remaining proteolytic activity, Factor Xa (Factor Xa)","fraction of remaining proteolytic activity, Factor XIa (Factor XIa [3])","fraction of remaining proteolytic activity, Factor XIIa (Factor XIIa)",Ki (Factor XIa [4]),Ki (plasma kallikrein [5]; [9]),also measured
"KALI-46: APPI Kunitz domain mutant, R1 EGRCRASILR2 FR3 (SEQ ID NO: 33) (VREVCSEQAEEGRCRASILRWYFDVTEGKCAPFFYGGCGGNRNNFDTEEYCAAVCGSA)",0.64,0.99,0.00,0.83,0.86,1.02,0.00,0.97,–,–,–
"VREVCSEQAEDGHCRAAHPRWYFDVTEGKCAPFVYGGCGGNRNNFDTEEYCAAVCGSA (disulfide 5-55, 14-38, 30-51) [KALI-DV]",–,–,–,–,–,–,–,–,1.3 ± 1.4 nM,0.043 ± 0.034 nM,–
"VREVCSEQAEPGHCRAAHPRWYFDVTEGKCAPFVYGGCGGNRNNFDTEEYCAAVCGSA (disulfide 5-55, 14-38, 30-51) [KALI-PV]",–,–,–,–,–,–,–,–,4.1 ± 5.2 nM,0.166 ± 0.07 nM,–
"VREVCSEQAEDGHCRAAHPRWYFDVTEGKCAPFFYGGCGGNRNNFDTEEYCAAVCGSA (disulfide 5-55, 14-38, 30-51) [KALI-D]",–,–,–,–,–,–,–,–,5.7 ± 7 nM,0.025 ± 0.022 nM,–
ecotin: a 142 residue protein from E. coli,–,–,–,–,–,–,–,–,–,–,Ki (plasma kallikrein [6]): ~0.16 nM
"VREVCSEQAEEGHCRAAHPRWYFDVTEGKCAPFYYGGCGGNRNNFDTEEYCAAVCGSA (disulfide 5-55, 14-38, 30-51) [KALI-EY]",–,–,–,–,–,–,–,–,7.3 ± 5.5 nM,0.98 ± 0.075 nM,–
"KALI-48: APPI Kunitz domain mutant, R1 TGHCRAAIPR2 FR3 (SEQ ID NO: 2) (VREVCSEQAETGHCRAAIPRWYFDVTEGKCAPFFYGGCGGNRNNFDTEEYCAAVCGSA)",0.23,0.99,0.00,0.92,0.95,0.55,0.01,0.99,–,–,inhibition of plasmin (plasmin): > 60%
"VREVCSEQAEEGHCRAAHPRWYFDVTEGKCAPFFYGGCGGNRNNFDTEEYCAAVCGSA (disulfide 5-55, 14-38, 30-51) [KALI-E]",–,–,–,–,–,–,–,–,4.5 ± 4 nM,0.103 ± 0.054 nM,–
"KALI-30: APPI Kunitz domain mutant, R1 EGHCRAAILR2 FR3 (SEQ ID NO: 5) (VREVCSEQAEEGHCRAAILRWYFDVTEGKCAPFFYGGCGGNRNNFDTEEYCAAVCGSA)",0.53,1.00,0.00,0.81,1.02,0.68,0.00,0.92,–,–,–
"APPI: 58 amino acid Kunitz domain from human Alzheimer's disease amyloid β-protein precursor, residues 287-344; here Met52 replaced with Ala [reference compound]",–,–,0.81,–,0.60,–,0.03,–,2.7 ± 1.4 nM,–,"fold prolongation of clotting time, APTT [7]: 2.8 fold; prolongation of clotting time in PT assay (in words) [8]: neither KALI-DY, BPTI, nor APPI appreciably prolonged"
"VREVCSEQAEPGHCRAAHPRWYFDVTEGKCAPFFYGGCGGNRNNFDTEEYCAAVCGSA (disulfide 5-55, 14-38, 30-51) [KALI-P]",–,–,–,–,–,–,–,–,13.8 ± 17.4 nM,0.2 ± 0.099 nM,–
"VREVCSEQAEDGHCRAAHPRWYFDVTEGKCAPFYYGGCGGNRNNFDTEEYCAAVCGSA (disulfide 5-55, 14-38, 30-51) [KALI-DY]",–,–,–,–,–,–,–,–,8.2 ± 3.5 nM,–,Ki (plasma kallikrein [5]; read-out: Ki* for plasma kallikrein): 0.015 ± 0.014 nM
"VREVCSEQAEPGHCRAAHPRWYFDVTEGKCAPFYYGGCGGNRNNFDTEEYCAAVCGSA (disulfide 5-55, 14-38, 30-51) [KALI-PY]",–,–,–,–,–,–,–,–,11.7 ± 11.9 nM,0.136 ± 0.081 nM,–
CC(C)[C@H](N)C(=O)N[C@@H](CCCNC(=N)N)C(=O)N[C@@H](CCC(=O)O)C(=O)N[C@H](C(=O)N[C@H]1CSSC[C@@H](C(=O)NCC(=O)N[C@@H](CO)C(=O)N[C@@H](C)C(=O)O)NC(=O)[C@H](C(C)C)NC(=O)[C@H](C)NC(=O)[C@H](C)NC(=O)[C@@H]2CSSC[C@@H]3NC(=O)[C@H](CCCCN)NC(=O)CNC(=O)[C@H](CCC(=O)O)NC(=O)[C@H]([C@@H](C)O)NC(=O)[C@H](C(C)C)NC(=O)[C@H](CC(=O)O)NC(=O)[C@H](Cc4ccccc4)NC(=O)[C@H](Cc4ccc(O)cc4)NC(=O)[C@H](Cc4c[nH]c5ccccc45)NC(=O)[C@H](CCCNC(=N)N)NC(=O)[C@@H]4CCCN4C(=O)[C@H](Cc4c[nH]cn4)NC(=O)[C@H](C)NC(=O)[C@H](C)NC(=O)[C@H](CCCNC(=N)N)NC(=O)[C@H](CSSC[C@H](NC(=O)CNC(=O)CNC(=O)[C@H](Cc4ccc(O)cc4)NC(=O)[C@H](C(C)C)NC(=O)[C@H](Cc4ccccc4)NC(=O)[C@@H]4CCCN4C(=O)[C@H](C)NC3=O)C(=O)NCC(=O)NCC(=O)N[C@@H](CC(N)=O)C(=O)N[C@@H](CCCNC(=N)N)C(=O)N[C@@H](CC(N)=O)C(=O)N[C@@H](CC(N)=O)C(=O)N[C@@H](Cc3ccccc3)C(=O)N[C@@H](CC(=O)O)C(=O)N[C@@H]([C@@H](C)O)C(=O)N[C@@H](CCC(=O)O)C(=O)N[C@@H](CCC(=O)O)C(=O)N[C@@H](Cc3ccc(O)cc3)C(=O)N2)NC(=O)[C@H](Cc2c[nH]cn2)NC(=O)CNC(=O)[C@H](CCC(=O)O)NC(=O)[C@H](CCC(=O)O)NC(=O)[C@H](C)NC(=O)[C@H](CCC(N)=O)NC(=O)[C@H](CCC(=O)O)NC(=O)[C@H](CO)NC1=O)C(C)C [KALI-EV],–,–,–,–,–,–,–,–,–,0.117 ± 0.059 nM,–
"KALI-13: APPI Kunitz domain mutant, R1 SGHCRAAIPR2 FR3 (SEQ ID NO: 1) (VREVCSEQAESGHCRAAIPRWYFDVTEGKCAPFFYGGCGGNRNNFDTEEYCAAVCGSA)",0.65,0.96,0.00,0.90,0.96,0.97,0.01,1.00,–,–,–
"KALI-8: APPI Kunitz domain mutant, R1 LGHCRAAIPR2 FR3 (SEQ ID NO: 3) (VREVCSEQAELGHCRAAIPRWYFDVTEGKCAPFFYGGCGGNRNNFDTEEYCAAVCGSA)",0.83,0.99,0.00,0.89,0.94,1.13,0.00,1.00,–,–,–
